This is an account of results in patent US9266964.

The labels stand for the following.
B1: X115-D05 (antibody, V domains shown)
VH: EVQLLESGGGLVQPGGSLRLSCAASGFTFSDYMMAWVRQAPGKGLEWVSSIVPSGGHTHYADSVKGRFTISRDNSKNTLYLQMNSLRAEDTAVYYCARVARGIAARSRTSYFDYWGQGTLVTVSS
VL: EIVLTQSPGTLSLSPGERATLSCRTSQFVNSNYLAWYQQKPGQAPRLLIYGASSRATGIPDRFSGSGSGTDFTLTISRLEPEDFAVYYCQQSSRTPWTFGQGTKVEIK
notes: only variable domains given; also called 559A-X115-D05; 559A-X0115-D05
B2: X115-E09 (antibody, V domains shown)
VH: EVQLLESGGGLVQPGGSLRLSCAASGFTFSHYLMTWVRQAPGKGLEWVSYISPSGGHTIYADSVKGRFTISRDNSKNTLYLQMNSLRAEDTAVYYCARVAQGIAARSRTSSVDQWGQGTLVTVSS
VL: EIVLTQSPGTLSLSPGERATLSCRTSQFVNSNYLAWYQQKPGQAPRLLIYGASSRATGIPDRFSGSGSGTDFTLTISRLEPEDFAVYYCQQSSRTPWTFGQGTKVEIK
notes: only variable domains given; also called 559A-X115-E09; 559A-X0115-E09
B3: X115-H06 (antibody, V domains shown)
VH: EVQLLESGGGLVQPGGSLRLSCAASGFTFSHYLMTWVRQAPGKGLEWVSYISPSGGHTIYADSVKGRFTISRDNSKNTLYLQMNSLRAEDTAVYYCARVAQGISARSRTSYFDYWGQGTLVTVSS
VL: EIVLTQSPGTLSLSPGERATLSCRTSQFVNSNYLAWYQQKPGQAPRLLIYGASSRATGIPDRFSGSGSGTDFTLTISRLEPEDFAVYYCQQSSRTPWTFGQGTKVEIK
notes: only variable domains given; also called 559A-X115-H06; 559A-X0115-H06
B4: X69-C09 (IgG) (antibody, V domains shown)
VH: EVQLLESGGGLVQPGGSLRLSCAASGFTFSAYSMIWVRQAPGKGLEWVSYIRPSGGRTTYADSVKGRFTISRDNSKNTLYLQMNSLRAEDTAVYYCARGGLLLWFRELKSNYFDYWGQGTLVTVSS
VL: DIQMTQSPSSLSAFVGDRVTITCRASQPIDNYLNWYHQKPGKAPKLLIYAASRLQSGVPSRLSGSGFGTDFTLTISSLQPEDFGNYYCQQSYTVPYTFGGGTKVEIR
notes: Full length human IgG1; printed HC runs into CH1; also called Parental
B5: X67-C09 (IgG) (antibody, V domains shown)
VH: EVQLLESGGGLVQPGGSLRLSCAASGFTFSAYSMIWVRQAPGKGLEWVSYIRPSGGRTTYADSVKGRFTISRDNSKNTLYLQMNSLRAEDTAVYYCARGGLLLWGRELKSNYFDYWGQGTLVTVSS
VL: DIQMTQSPSSLSAFVGDRVTITCRASQPIDNYLNWYHQKPGKAPKLLIYAASRLQSGVPSRLSGSGFGTDFTLTISSLQPEDFGNYYCQQSYTVPYTFGGGTKVEIR
notes: printed HC runs into CH1
B6: X67-B03 (IgG) (antibody, V domains shown)
VH: EVQLLESGGGLVQPGGSLRLSCAASGFTFSAYSMIWVRQAPGKGLEWVSYIRPSGGRTTYADSVKGRFTISRDNSKNTLYLQMNSLRAEDTAVYYCARGGLLLWSRELKSNYFDYWGQGTLVTVSS
VL: DIQMTQSPSSLSAFVGDRVTITCRASQPIDNYLNWYHQKPGKAPKLLIYAASRLQSGVPSRLSGSGFGTDFTLTISSLQPEDFGNYYCQQSYTVPYTFGGGTKVEIR
notes: printed HC runs into CH1
B7: X67-C03 (IgG) (antibody, V domains shown)
VH: EVQLLESGGGLVQPGGSLRLSCAASGFTFSAYSMIWVRQAPGKGLEWVSYIRPSGGRTTYADSVKGRFTISRDNSKNTLYLQMNSLRAEDTAVYYCARGGLLLWMRELKSNYFDYWGQGTLVTVSS
VL: DIQMTQSPSSLSAFVGDRVTITCRASQPIDNYLNWYHQKPGKAPKLLIYAASRLQSGVPSRLSGSGFGTDFTLTISSLQPEDFGNYYCQQSYTVPYTFGGGTKVEIR
notes: printed HC runs into CH1
B8: X67-E04 (IgG) (antibody, V domains shown)
VH: EVQLLESGGGLVQPGGSLRLSCAASGFTFSAYSMIWVRQAPGKGLEWVSYIRPSGGRTTYADSVKGRFTISRDNSKNTLYLQMNSLRAEDTAVYYCARGGLLLWDRELKSNYFDYWGQGTLVTVSS
VL: DIQMTQSPSSLSAFVGDRVTITCRASQPIDNYLNWYHQKPGKAPKLLIYAASRLQSGVPSRLSGSGFGTDFTLTISSLQPEDFGNYYCQQSYTVPYTFGGGTKVEIR
notes: printed HC runs into CH1

For one assay, the target named is T1, human plasma kallikrein (full length, active) (human, UniProt P03952 20-390; P03952 391-638).
T1 construct: two disulfide linked polypeptides; also called Full length pKal; pKal
T1 sequence (P03952 20-390, chain 1 of 2): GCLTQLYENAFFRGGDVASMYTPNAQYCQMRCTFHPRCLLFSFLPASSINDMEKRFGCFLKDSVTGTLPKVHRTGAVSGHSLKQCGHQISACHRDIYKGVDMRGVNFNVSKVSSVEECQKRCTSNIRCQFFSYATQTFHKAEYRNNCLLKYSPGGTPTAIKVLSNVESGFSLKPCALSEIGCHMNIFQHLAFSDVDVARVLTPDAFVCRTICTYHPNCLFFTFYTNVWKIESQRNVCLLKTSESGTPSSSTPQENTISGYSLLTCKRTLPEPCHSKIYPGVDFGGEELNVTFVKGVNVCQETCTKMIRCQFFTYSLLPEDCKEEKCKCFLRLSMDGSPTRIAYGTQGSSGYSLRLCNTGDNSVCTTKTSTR
T1 sequence (P03952 391-638, chain 2 of 2): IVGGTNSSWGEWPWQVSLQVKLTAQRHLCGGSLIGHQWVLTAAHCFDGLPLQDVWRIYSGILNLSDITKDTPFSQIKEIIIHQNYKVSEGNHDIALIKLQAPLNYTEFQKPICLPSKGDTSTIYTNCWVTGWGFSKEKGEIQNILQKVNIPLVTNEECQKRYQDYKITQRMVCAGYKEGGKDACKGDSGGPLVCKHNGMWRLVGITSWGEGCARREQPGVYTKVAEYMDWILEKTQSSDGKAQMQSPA
Kind of assay: Ki,app: enzyme inhibition, fluorescent substrate, 2 h pre-incubation at 30 C, tight-binding fit. The procedure: Apparent Inhibition constants (K_{i,app} values) were measured by pre-incubating enzyme and inhibitor solutions prior to initiating the reactions with substrate. Enzyme and inhibitor were pre-incubated for 2 hours at 30° C. in a 96-well plate by adding 10 μL of a 10× enzyme solution and 10 μL of 10× inhibitor solutions to 70 μL of reaction buffer. Reactions were initiated by the addition of 10 μL of a 10× concentrated stock of substrate, and were monitored at 30° C. in a fluorescence plate reader with the excitation and emission wavelengths set at 360 nm/460 nm, respectively. Kinetic data were acquired by the increase in fluorescence, and initial rates for each condition were plotted against the total inhibitor concentration. The data was fit to the following equation for tight binding inhibitors: […]
B1 returned a Ki of 0.25 nM. For B2, the Ki was 0.34 nM. Take B3: the Ki is 0.35 nM.

The target of another assay is T2, human plasma kallikrein (human, UniProt P03952 20-390; P03952 391-638).
T2 construct: two disulfide linked chains; also called pKal; human pKal
T2 sequence (P03952 20-390, chain 1 of 2): as the sequence (P03952 20-390, chain 1 of 2) above
T2 sequence (P03952 391-638, chain 2 of 2): as the sequence (P03952 391-638, chain 2 of 2) above
Kind of assay: Ki,app as an IgG, steady state enzyme kinetics, inhibition of human pKal.
In the case of B4, the Ki worked out at 0.2 nM. The same measure, in the same setting: next, B5: 8.6 nM.

In turn, B6 showed a Ki of 2.1 nM. B7 gave a Ki of 0.7 nM. The same measure, in the same setting: next, B8: 1.3 nM.
